Data from patent US20220218850A1, “Methods and Compositions for Two-Stage Microbubble Delivery of Active Agents” (Virginia Commonwealth University, priority 2021, published 2022).

System: DU-145 tumor xenografts
Experiment: UTMD delivery of Alexa Fluor-His-MDA-7/MB complex to DU-145 xenografts
Type: in vivo, mice
Details: tail vein, ultrasound at left flank tumor (UTMD)
Description: DU-145 human prostate cancer cells were established as xenografts in the left flank of nude mice. Alexa Fluor labeled His-MDA-7/MBs complex were injected through the tail vein of nude mice, and sonoporated in the xenograft (DU-145) tumor implanted in the left flank with a portable ultrasound (SonoSite Micro-Maxx US platform) equipped with an L25 linear array transducer set at 0.7 Mechanical Index, 1.8 MPa for 10 min (UTMD approach). The fluorescent image was captured using Xenogen IVIS spectrum. […] Lighter color indicates higher fluorescent intensity.
In addition to delivering therapeutic viruses systemically, we also tested the possibility of using MBs and a UTMD approach to deliver therapeutic proteins in vivo. His tagged MDA-7/IL-24 (His-MDA-7) was purified by using Ni-NTA column chromatography. 1 mg/ml of His-MDA-7 solution was mixed with Alexa Fluor 488 containing 0.1 M Sodium bicarbonate, followed by removal of unincorporated dye by centrifugation using centricon (3 kD cut off MW). Confirmation of labeling of His-MDA-7 (Alexa Fluor-His-MDA-7) was obtained spectroflurometrically based on emission spectra changes. The Alexa Fluor-His-MDA-7 was incubated overnight with MBs and localization of the labeled protein complex in the MBs was monitored by green fluorescence and found to be associated with the lipid shell of the MB (FIG. 3A). […]

B1: Alexa Fluor-His-MDA-7: His tagged MDA-7/IL-24 protein labeled with Alexa Fluor 488, complexed with microbubbles (protein, UniProt Q13007 52-206, looked up)
Interleukin-24: QEFHFGPCQVKGVVPQKLWEAFWAVKDTMQAQDNITSARLLQQEVLQNVSDAESCYLVHTLLEFYLKTVFKNYHNRTVEVRTLKSFSTLANNFVLIVSQLQPSQENEMFSIRDSAHRRFLLFRRAFKQLDVEAALTKALGEVDILLTWMQKFYKL
modifications: His tag, Alexa Fluor 488, microbubble complex
notes: His tagged MDA-7/IL-24 protein labeled with Alexa Fluor 488, complexed with microbubbles
  localisation of labeled protein (fluorescent image): mostly localized in the left flank where ultrasound was applied
Listed as Alexa Fluor-MDA-7
  localisation of labeled protein (fluorescent image): located predominantly in the tumor in the left flank of mice
